The data set in a line: label from the status in PepcDB records.
Turning to “MLQSKVFKYSRWDIACCLVIPFQISVYALLAYYYQSMSLLALLGMIPVLFALSLQNAGANHNHYHTPFFRIRWMNTLTRMGFSATEAPKTPYNIGHGIHHATHQSWNDKSILAVLGLKRSIAQQLISFGLFIFESLGVKYFTLLVLLKYWPIERVAVLASPEDPVLAARALKKLLEPAKLKAAKYDLAAWFLFRLVLCVVDWQFFFFYFIPVTYLIDTLRQGENYFQHWGATDPNDPKRDSVSCYSTLYNLLTFNLGYHQEHHYKPGLHWLKLPELTKELPSDRHTVPYSHYLNSPLMFPERASQLRKENVADVSP”, the protein production entry is reported as “failed”.
For “MLQTINKTLGKIMPLLTPLSVVSGVLLADYLNGLASLVPWIFAFMTFAGSLGANFQSLKTAVAHPLPMFLALFVLHIFMPVLAWSTGHLVFSGDSLTITGLTLGVVIPTGITSMIWAAMYKGNIGLTLSIILVDTILSPFIVPFSLSILAGAHVEMDVIGMMKGLVGMIVIPSLLGMLVNQFSTPERTVRLSANCAPFSKVGLAAVVAINSSVVAPYLKNVDLKFLTIAVTVFLVAFTGYLTAWLIGRLMKRPQEEIVALIFTGGMRNISAGAVLATSFFPPQVAVPVVIGMLFQQILAALFGHLLARSELKKAHHLDKKTSLPS”, the protein production result is given as “failed”.
For “MLRKKHFSWMLVILILIAVLSFIKLPYYITKPGEATELASLIKVEGGYPEKGSLSLMTVKVGPANPFTYVWAKMHPYYEIVPDESIKEEGESDKEYMKRQLQMMKSSQENAVIAAYQKAGKKVSYSFNGIYASSVVENMPAKGKIEVGDKIISADGKNYQSAEKLIDYISSKKAGDKVTLKIEREEKEKRVTLTLKQFPDEPDRAGIGVSLYTDRNVKVEPDIDFEIENIGGPSAGLMMSLEIYNQLTKPDETKGYDIAGTGTIDVDGKVGPIGGIDQKVVAADKAGKDIFFAPNQNGASNSDYKNAVKTAKDIDSNMKIVPVDTMQDAIDYLNKLKAKQPDSQVLFLYI”, the protein production result is reported as “failed”.
Consider “MLRLVKTRPSLRLGPSETAVIRVLDQERIDRINQDLTRAWKADVETTCVLSGILLLPCLILICLLDGPLFAKVILCTFLCLMVGGWCIAKWLNAQAQPRTDITGVKVEQLEGYFDRRWVRNGGKPYIEYSFGKHWLHIQTSACSFFSGDTQLKLNRRYRVDALYLTGHSSAYTGYYLLEETFKEIFDDSDLSAAEKIQIAEREKRINQDLEEQHKRLYRLYRNPQGELEAVAIGFNFAACFLTVLWSFCVSLYWVTGLTLAALGLILLIPDTGAGHPWFALGWLLSAGVFGACGNLWRERQVLSKGFVQVDALLSCNPDQAKVQYKRKVEEAAPGFGQ”, for which the protein production entry is given as “failed”.
The value for “MLRNNLGNSSDSKNEDGSVFSQTEHNIVATYLIMAGMISIISNIIVLGIFIKYKELRTPTNAIIINLAVTDIGVSSIGYPMSAASDLYGSWKFGYAGCQVYAGLNIFFGMASIGLLTVVAVDRYLTICLPDVGRRMTTNTYIGLILGAWINGLFWALMPIIGWASYAPDPTGATCTINWRKNDRSFVSYTMTVIAINFIVPLTVMFYCYYHVTLSIKHHTTSDCTESLNRDWSDQIDVTKMSVIMICMFLVAWSPYSIVCLWASFGDPKKIPPPMAIIAPLFAKSSTFYNPCIYVVANKKFRRAMLAMFKCQTHQTMPVTSILPMDVSQNPLASGRI” was “failed”.
Regarding “MLRSCARRLRTLGALCQPPPVGRRLPGSEPQPALRSFSSEEVILKDYSVPNPSWNKDLRLLFDQFMKKCEDGSWKRLPSYKRTPTERIQDFKTHFLDPKLMKEEQVSQAQLFTRSFDDGLGFEYVMFYNDVEKRMVCLFQGVPYLEGPPGLIHGGAIATMIDATVGMCAMMAGGIVMTANLNISCKRPIPLCSVVRINSQLDKVEGKKFFVSSNVQSVDEKTLYSEATSLLIKLNPAKSLT”, the protein production result was “failed”.
Regarding “MLRSLDIRDMLIIDRLSLAFQPGLNVLTGETGAGKSILLDSLGFVLGWRGRAELVRAGADKGEVTAVFDLPPGHAARAVLDEAGIEAEDELILRRVNFADGRKTAWVNDRRVSGEVLRGLSDRLVELHGQHDDRGLLNPRGHRQMLDTFAGLDLSACRRAWTALGTARRTLLAAEEALAAVRAEEDFLRHAVAELDKLDPQPGEEALLDTRRREMQGAEKIRDDIARAHRALSAEGAETLLVD”, the protein production entry is listed as “failed”.
For “MLRTEHYAFLPCISRALEERDSLGIRRELRARQQRLSMQQSRSKLGRVCVTGANSPLGQELVGALTRTPDPSLRPDAIGVIGARDPIESHSAGAGLHFPGPGVDFLECAATDLEHYNPRTLFSINDDDLGLRRRSIFRENQVVIDLLRAQGETNEPRSKTRLVLVTLLGCGDSEDAIPSQAFDVLRPLLLELSRVEQYVRESGLPYTIVRPGALEHGDADSRAIVSESKVGFGTIHRSTLAHLLLNVAASEKAVNKTLMALDMNRLLVAAPYVRPFEVWESPPFEVFDL” the value was “not failed”.
“MLRTFVLMFFTSLSFIVAYYITFSPLILAEFSHALIDFLTIAFSIIAIKFIGENEVAEGRFSYGLHRLEVVVAMINLIIIILLSLAVAYTSVTSLFKETTNDSFTLIVSSALASFLTYFASPKERNDLGKKGLYMHILSDFLGYIMGFIIGILIFISGIRELDPVGAIILVILNFALSIPLLKEAFLIFMEGSSVKIDHIMEELTKISPSVHHLHVWSICDHVKVATLHVKVSPNLTIAEADKIRGSICDFLKEKYGISHVTVQFETNVDD”: the protein production entry is reported as “failed”.
For the sequence “MLRYSLLVLLGACSYGILAIFVKLAYAEGFSLGEVIGSQYLFGWIILLAITLLFSRHRVPLKQALLLFVAGTSASFTGIFYYASLKTVPASIAIILLFQFVWVGIIIEAVATKTLPSREKVISVIFLLVGTFLSSGLLEQSAGAFDTTGIILGLLSAVTFATYIFVSGKVAVEVPSLPRGVLLMTGALTLVMIVFPPTFIFNGAISQGLWKYGLGLGTFSIVIPSIAFTIGIPKIGSGLATILGAAELPVTTIMSVFVLKEAVLSSQWFGVSLILIGIAIPQIAYAMRGRYRKHHTHKKVAA”, the protein production entry was “failed”.
For “MLSAYFSGSETGLLSLNKYRLRFLSEQGNKGAKKAEKLLEKPDTLLSFILIFNNLVNISASAIATVIGMRLYGDAGVAIATGLLTFVMLVFSEIFPKTVAAMHAEKVSFFSSHILTSLLKIFYPLVWLMNIFTKSLMQIVGLKLDMQKQVISSEELRSIVSEAGEATPNEQHPQMLLSILDMETVTVDDIMVPRNEIGGINIDDDWRAIMRQLNHAAHNRVVLYKGSLDEQVLGILRVREAFRLLLEKNEFTKETLIRAADEVYFIPESTPLKTQLANFRTNKERIGLVVDEYGDIKGLVTLEDILEEIVGDFTTSTAPSIDKEVIQQSDGSMIIDGSANLRDLNKMFNWELDTEDARTFNGLILEHLEEIPDEGTICEIDGLLITILEVGDNMIKQAKVVKL” the value was “not failed”.
As for “MLSELAKQFSTQIQTFFYLIMLINGLLHFIFAGAVARDAGNLYRLGQKPVLVSAPTWAFATLIGGVITATIYWLLHHSTLTRPTMREIRYDKA”, the protein production entry is recorded as “failed”.
In the case of “MLSFIAVGLLARLAVARGEVKYGCTKHELRRLSRRGRLLLVVLWPLVAAFLLAIFPNVPSRNIFGDLILIIAAVLPAALLAFLVNAMLERTRFKVVPRRSPKAHSR”, the protein production result was “failed”.
As for “MLSFIIKRILWAIPTLFGVSIIVFMMVHLVPGDPALVILGEKANQAAIDALREQFGLNKPLIEQYFFFINNVLHGNFGTSIMTGEPVMHEFWQRFPATVELALIALFMALVLGISVGVLAAIKRYSVFDYSSMTFALAGISMPVFWLGLMLIYIFSVQLGWLPVFGRLSDVYYLDGPTGLYLIDSLIARDYGAFMDTIKHLILPSIVLATVSTAVIARMTRASMAEVSKEDYVRTAKAKGCSSFRVIFVHTLRNALIPVTTIAGLMLAGLLGGSMITETVFSWPGIGKWIVNALNQRDFPIIQSMSLIIAMMYIGANLLVDILYAFIDPRIRLS”, the protein production entry is listed as “failed”.
As for “MLSFRARLFLAFALLWLLFLGGGWYLAGRSVDQALKRRLEATLAQDALRAAEAYQKGQAGALLTTGGVYLHLYAQDGTPIALTRPDHRLPPERLRRAGPTPEVLWEEGFAAALVATPLGLLVLTAETSPIEAALEALREALLRAFLLLSPLGLALVYLTARLAARPLEAVAREITRRSPDRLDPVPHRLPQDEFGRMVEAVNALLQALKEAKERERAFLAEASHELRTPLTVLLGHLDRLGRNPQDLEALRTARATAERMRRLVEDLLALARGEVERNLNLHIVDLGEVAREAALEHGVAAEAESAEVLGDPDRLLQLLRNLVANAVRAAGKEGVRVRVRREADHALLEVEDSGPGIPEDLLPRLFQRFARGPGGGTGLGLAIAHAIAKAHGGEIAVESRPGRTVFRVRLPLLEEEA”, the protein production result is on record as “failed”.

For the origin of these results see a protein production outcome set (Wang et al. 2014).
